Measurements from patent US20220381793A1, “COMPOSITIONS AND METHODS FOR IDENTIFYING MHC-II BINDING PEPTIDES” (priority 2021, published 2022).

Assays:
[1] = target: T1, “empty” DQ6 (DQA1*01:02/DQB1*06:02) on yeast (Homo sapiens, UniProt P01909+P01920); experiment: RIPPA competition assay, yeast displaying “empty” DQ6, HCRT 15-mer peptides; assay type: binding; details: for DQ6 binding (in words): method not given, possible false positives
T1 construct: A PCR fragment carrying the extracellular domain of HLA-DQA1*0102 with C-terminal Fos was cloned into ptDR1; A second PCR fragment carrying the extracellular domain of HLA-DQB1*0602 with C-terminal Jun was cloned into pDQ6α; Syn-pre-pro leader (secretion leader) (N); expressed in transfected cells; host or cells: Saccharomyces cerevisiae EBY100, surface display via Aga1p/Aga2p
Method: FIGS. 4A-4C. RIPPA identified all DQ6 binders from HCRT. FIG. 4A. Yeast expressing “empty” DQ6 was incubated with 20 μM HCRT1-13-Bio and 200 μM of the indicated non-biotinylated HCRT 15-mer peptide at pH 5.0, 30° C. for 20 hours and analyzed by flow cytometry. % Competition=100%−% binding (% binding as calculated in FIG. 3E). Error bars represent SEM from three independent experiments. Bolded letters denote previously identified 9-aa DQ6-binding registers^4, 5, 42: […], SSGAAAQPL, NHAAGILTL and NHAAGILTM, respectively. HCRT49-63 or HCRT81-95 covers <8 aa of the previously determined registers. Binding ranks for each HCRT peptide predicted by NetMHCIIpan-4.0 (trained on both elution and binding data) are shown as 100-% rank to the left. FIGS. 4B-4C. Correlation analysis for binding data acquired using “empty” DQ6 on yeast versus soluble CLIP/DQ6 protein (FIG. 4B) or versus NetMHCIIpan-4.0 prediction (FIG. 4C). Arrows indicate peptides that show binding in one method but not the other in the comparison. Open circles in FIG. 4B match open bars in FIG. 4A, indicating ligands identified by both empirical methods.
6×10^5 galactose-induced yeast were incubated at pH 5.0, 30° C. for 20 hours with 20 μM biotinylated indicator peptides in the presence of various concentrations of a competitor peptide to determine an appropriate competitor concentration for a competition assay. […] After incubation, the yeast cells were washed with PBS+1% BSA, stained with streptavidin-AF647 and analyzed by flow cytometry as described above. […]
Sufficient amounts of galactose-induced yeast cells displaying “empty” DQ6 were collected by centrifugation at 2,500 g for 3 min and resuspended in the 40 mM citrate buffer (pH 5.0) at a density of 1.5×10^4 cells μl^−1. […] DQ6-associated HCRT1-13-Bio was labeled with streptavidin-AF647 and analyzed by flow cytometry as described above. The binding of a competitor peptide to “empty” DQ6 on yeast was quantified as % competition=100%−[(MFIwith competitor−background)/(MFIwithout competitor−background)]×100%.

[2] = target: T2, “empty” DR4 (DRA*01:01/DRB1*04:01) on yeast (Homo sapiens, UniProt P01903+P01911); experiment: RIPPA competition assay, yeast displaying “empty” DR4, SARS-CoV-2 S peptides; assay type: binding; details: 200 μM competitor vs 20 μM Bio-HA306-318, pH 5.0, 30° C., 20 hours
T2 construct: the α chain ectodomain, with or without the Jun motif, was designed to be secreted from yeast; the DR4 β chain ectodomain, with or without the Fos motif, was engineered to the upstream of yeast AGA2 gene; Syn-pre-pro leader (secretion leader) (N); expressed in transfected cells; host or cells: Saccharomyces cerevisiae EBY100, surface display via Aga1p/Aga2p
T2 sequence (P01903 with tags, fused parts or gaps): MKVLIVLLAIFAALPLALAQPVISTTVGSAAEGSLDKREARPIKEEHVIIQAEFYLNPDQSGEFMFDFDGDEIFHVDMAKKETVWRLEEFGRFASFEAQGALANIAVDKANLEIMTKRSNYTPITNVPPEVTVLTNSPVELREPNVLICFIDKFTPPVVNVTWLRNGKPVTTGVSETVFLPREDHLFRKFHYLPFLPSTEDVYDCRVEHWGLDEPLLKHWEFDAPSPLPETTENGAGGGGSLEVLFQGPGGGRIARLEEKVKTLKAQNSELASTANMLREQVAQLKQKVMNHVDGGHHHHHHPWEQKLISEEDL
T2 sequence (P01911 with tags, fused parts or gaps with the stated changes): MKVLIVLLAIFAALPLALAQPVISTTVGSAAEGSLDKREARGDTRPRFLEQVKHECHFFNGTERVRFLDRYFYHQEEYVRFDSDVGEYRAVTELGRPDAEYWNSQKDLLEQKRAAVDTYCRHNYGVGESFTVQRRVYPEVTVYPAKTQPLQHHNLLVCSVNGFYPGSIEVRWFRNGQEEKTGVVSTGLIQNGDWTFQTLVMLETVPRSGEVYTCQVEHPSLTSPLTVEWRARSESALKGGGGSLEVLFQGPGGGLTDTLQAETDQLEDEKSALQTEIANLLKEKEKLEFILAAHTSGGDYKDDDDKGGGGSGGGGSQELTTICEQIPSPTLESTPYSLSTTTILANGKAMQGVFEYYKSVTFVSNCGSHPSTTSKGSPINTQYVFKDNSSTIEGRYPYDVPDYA
T2 sequence (P32323 25-725 partner): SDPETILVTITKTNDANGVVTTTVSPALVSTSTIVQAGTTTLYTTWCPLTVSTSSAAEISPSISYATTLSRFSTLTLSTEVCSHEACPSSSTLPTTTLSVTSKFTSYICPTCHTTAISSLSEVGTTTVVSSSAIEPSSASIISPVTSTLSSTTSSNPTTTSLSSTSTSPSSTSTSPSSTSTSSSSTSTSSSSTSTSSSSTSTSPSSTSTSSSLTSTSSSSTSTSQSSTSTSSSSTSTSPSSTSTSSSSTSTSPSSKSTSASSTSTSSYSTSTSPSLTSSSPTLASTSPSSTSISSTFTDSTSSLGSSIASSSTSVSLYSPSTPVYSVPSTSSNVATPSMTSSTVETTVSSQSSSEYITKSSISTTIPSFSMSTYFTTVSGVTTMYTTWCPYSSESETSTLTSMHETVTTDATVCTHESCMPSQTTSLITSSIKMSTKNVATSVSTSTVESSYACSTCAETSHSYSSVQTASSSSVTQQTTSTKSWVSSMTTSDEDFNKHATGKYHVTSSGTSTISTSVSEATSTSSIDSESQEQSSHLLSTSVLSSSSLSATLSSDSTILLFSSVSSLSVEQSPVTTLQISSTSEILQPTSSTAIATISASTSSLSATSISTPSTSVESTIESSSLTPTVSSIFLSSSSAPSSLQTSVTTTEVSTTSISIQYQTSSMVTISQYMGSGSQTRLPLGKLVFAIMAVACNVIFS

T1 sequence (P01909 with tags, fused parts or gaps with the stated changes): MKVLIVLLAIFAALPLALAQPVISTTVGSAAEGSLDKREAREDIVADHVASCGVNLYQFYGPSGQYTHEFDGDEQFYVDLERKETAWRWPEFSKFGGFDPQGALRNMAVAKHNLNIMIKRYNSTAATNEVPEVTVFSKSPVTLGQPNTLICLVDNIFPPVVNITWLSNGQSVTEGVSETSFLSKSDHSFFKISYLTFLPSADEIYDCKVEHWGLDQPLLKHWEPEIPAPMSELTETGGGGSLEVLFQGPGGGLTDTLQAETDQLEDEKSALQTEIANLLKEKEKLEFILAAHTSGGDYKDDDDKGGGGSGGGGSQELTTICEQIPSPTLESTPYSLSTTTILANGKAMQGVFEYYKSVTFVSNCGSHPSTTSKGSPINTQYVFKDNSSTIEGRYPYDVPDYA
T1 sequence (P01920 with tags, fused parts or gaps with the stated changes): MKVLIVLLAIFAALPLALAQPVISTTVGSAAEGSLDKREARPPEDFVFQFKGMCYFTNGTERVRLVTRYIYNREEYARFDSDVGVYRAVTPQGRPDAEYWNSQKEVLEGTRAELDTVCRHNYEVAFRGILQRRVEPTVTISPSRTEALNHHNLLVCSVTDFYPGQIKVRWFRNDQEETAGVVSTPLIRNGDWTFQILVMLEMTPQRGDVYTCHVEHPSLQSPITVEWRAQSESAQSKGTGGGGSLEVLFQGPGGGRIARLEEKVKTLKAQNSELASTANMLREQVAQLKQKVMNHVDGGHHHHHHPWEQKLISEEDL
T1 sequence (P32323 25-725 partner): as the sequence (P32323 25-725 partner) above

## HCRT81-95: 15-mer overlapping peptide derived from prepro-HCRT (hypocretin precursor) (QRLLQASGNHAAGIL; UniProt O43612 81-95, looked up, fragment)
[1]
  DQ6 binding (in words): bound DQ6

## S1058-1074: 17-mer overlapping peptide derived from the SARS-CoV-2 S protein (HGVVFLHVTYVPAQEKN)
[2]
  % competition: ~75%

## 5862-888: DR4 ligand peptide from the SARS-CoV-2 S protein (label probably misprinted) (PPLLTDEMIAQYTSALL)
[2]
  % competition: ~75%

## HCRT89-103: 15-mer overlapping peptide derived from prepro-HCRT (hypocretin precursor) (NHAAGILTMGRRAGA)
[1]; 200 μM competitor vs 20 μM HCRT1-13-Bio, pH 5.0, 30° C., 20 hours
  % competition: > 75%

## S764-780: 17-mer overlapping peptide derived from the SARS-CoV-2 S protein (NRALTGIAVEQDKNTQE)
[2]
  % competition: < 50%

## HCRT49-63: 15-mer overlapping peptide derived from prepro-HCRT (hypocretin precursor) (LYELLHGAGNHAAGI; UniProt O43612 49-63, looked up, fragment)
[1]
  DQ6 binding (in words): bound DQ6
